Laboratory results: patent US20150197559A1 (University of California, published 2015)

Assays:
[1] = target: T1, BoNT/B1 (Clostridium botulinum, UniProt P10844 2-1291); assay: flow cytometry, yeast-displayed scFv, soluble toxin
T1 sequence: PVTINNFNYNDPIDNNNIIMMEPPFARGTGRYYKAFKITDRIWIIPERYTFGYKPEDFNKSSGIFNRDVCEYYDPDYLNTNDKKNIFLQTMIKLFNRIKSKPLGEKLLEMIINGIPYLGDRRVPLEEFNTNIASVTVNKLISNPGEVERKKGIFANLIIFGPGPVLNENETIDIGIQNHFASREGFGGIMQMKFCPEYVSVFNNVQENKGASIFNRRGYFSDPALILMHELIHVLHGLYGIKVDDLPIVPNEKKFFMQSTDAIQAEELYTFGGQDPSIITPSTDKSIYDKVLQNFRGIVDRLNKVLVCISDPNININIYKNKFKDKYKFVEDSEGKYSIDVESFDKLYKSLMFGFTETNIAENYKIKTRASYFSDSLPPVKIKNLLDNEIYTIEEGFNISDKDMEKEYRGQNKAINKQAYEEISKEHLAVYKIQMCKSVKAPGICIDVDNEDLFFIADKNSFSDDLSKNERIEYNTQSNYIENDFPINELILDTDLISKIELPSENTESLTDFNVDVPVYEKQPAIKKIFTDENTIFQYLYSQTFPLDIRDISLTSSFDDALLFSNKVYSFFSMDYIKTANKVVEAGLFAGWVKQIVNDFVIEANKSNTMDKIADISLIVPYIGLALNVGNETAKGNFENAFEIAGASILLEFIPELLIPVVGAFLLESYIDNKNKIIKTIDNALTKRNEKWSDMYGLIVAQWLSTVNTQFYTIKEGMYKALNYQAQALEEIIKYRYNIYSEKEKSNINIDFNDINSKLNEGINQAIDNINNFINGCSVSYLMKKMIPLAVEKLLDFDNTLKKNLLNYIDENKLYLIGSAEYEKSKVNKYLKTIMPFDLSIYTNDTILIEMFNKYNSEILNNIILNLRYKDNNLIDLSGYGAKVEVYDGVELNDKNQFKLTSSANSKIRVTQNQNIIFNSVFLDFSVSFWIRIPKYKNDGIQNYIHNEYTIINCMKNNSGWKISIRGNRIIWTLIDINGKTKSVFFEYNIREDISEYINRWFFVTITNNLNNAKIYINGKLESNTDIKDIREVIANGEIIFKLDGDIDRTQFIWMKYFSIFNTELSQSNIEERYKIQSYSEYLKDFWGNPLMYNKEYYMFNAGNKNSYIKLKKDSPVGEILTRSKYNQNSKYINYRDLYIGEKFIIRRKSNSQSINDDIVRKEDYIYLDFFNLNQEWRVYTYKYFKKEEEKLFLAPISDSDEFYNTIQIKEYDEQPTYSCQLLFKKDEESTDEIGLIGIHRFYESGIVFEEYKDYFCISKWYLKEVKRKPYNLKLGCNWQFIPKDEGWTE

[2] = target: T1, BoNT/B1; assay: yeast-displayed Fab against parental B6 scFv, flow cytometry
[3] = target: T1, BoNT/B1; assay: flow cytometry, yeast-displayed Fab, soluble toxin
[4] = target: T1, BoNT/B1; assay: flow cytometry, yeast-displayed scFv, soluble toxin; remark: listed apart in the source
[5] = target: T1, BoNT/B1; assay: as above; remark: listed apart in the source
[6] = target: T1, BoNT/B1; assay: KinExA flow fluorimetry, IgG in solution
[7] = target: T1, BoNT/B1

B1: 2B30 scFv (scFv)
scFv: EVQLVESGGGVVQPGRSLRLSCAASGFTFRRNAIHWVRQAPGKGLEWVAVISYDGVNKYYAASVKGRFAISRDNAKNTLFLQMNSLRPEDSAIYYCARDVSEYGDYVGHFDYWGQGTLVTVSSGGGGSGGGGSGGGGSSYELMQLPSASGTPGQRVSISCSGSSSNIGSNPVNWYQQLPGTAPKLLIYSNNHRPSGVPDRFSGSKSGTSASLAISGLQSEDEADYYCAAWDGSLNGHVVFGGGTKLTVL
Kd [1]: 0.37 nM

B2: B6.C12 Fab (Fab, V domains shown)
VH: QVQLVQSGAEVKKPGESLVISCKASGDKDTFTSFWIAWVRQMPGKGLEWMGIIYAGDSDTRYSPSFQGHVNISVDRSTNTAYLQWSSLKASDTAMYYCARHDSRYKYFYFGMDVWGQGTTVTVSS
VL: DIVMTQSPSSLSASVGDRVTITCRASQSISSYLNWYQQKPGKAPKLLIYAASSLQSGVPSRFSGSGSGTDFTLTISSLQPEAFATYYCQQSYTAPCTFGQGTKLEIK
KD wild type/KD matured [2]: 7 fold
Kd [3]: 0.405 nM

B3: B6.D2 Fab (Fab, V domains shown)
VH: QVQLVQSGAEVKKPGESLVISCKASGDKDTFTSFWIAWVRQMPGKGLEWMGIIYAGDSDTRYSPSFQGHVNISVDRSTNTAYLQWSSLKASDTAMYYCARHDSRYKYFYFGMDVWGQGTTVTVSS
VL: DVVMTQSPCLPCLHLIGDRVTITCRASQSIRDYLSWYQQEPGKAPKLLIYSASSLQSGVPSRFSGSGSGTDFTLTITNLQPEDFATYYCLEKYSFPRCTFGQGTKLDIKR
KD wild type/KD matured [2]: 11 fold
Kd [3]: 0.254 nM

B4: 1B22 scFv (scFv)
scFv: QVQLQESGSRLVKPSQTLSLTCGVSGGSISSSSYSWSWIRQTPGKGLEWIGYIYHSGSTYYNPSLKSRVTMSVDKSRNQFSLNMSSVTAADTAVYYCARTAFYYENTGPIRCYLDFWGQGTLVTVSSGGGGSGGGGSGGGGSDIQMTQSPSTLSASIGDRVTISCRASQSIQSWLAWYQQRPGEAPKLLIYSASTLQTGVPSRFSGSGSGTDFTLTISSLQPEDFATYYCQQYNSYPLTFGQGTKLEIK
Kd [4]: 0.515 nM
Kd [1]: 0.52 nM

B5: B11E8 scFv (scFv)
scFv: EVQLVQSGGGVVQPGRSLRLSCAASGFIFRTYGMHWVRQAPGKGLEWVAFVSSDGNNKFYSDSVKGRFTISRDNAKNTLYLQMNSLETEDTAMYYCAKDRYPIDCSGGSCFSYGMDVWGQGTTVTVSSGGGGSGGGGSGGGGSEIVLTQSPATLSVSPGERATLSCRASQSVSKFLAWYQQKRGQAPRLLIYGASTRATGIPARFSGSGSGTEFALTISSLQSEDFADYYCQQYDNWPITFGQGTRLEIK
Kd [5]: 0.193 nM

B6: 2B23 scFv (scFv)
scFv: EVQLLESGGGLVQPGGSLRLSCAASGFTFSNYPMSWVRQAPGKGLAWVSSLTASGDNTFYADSVKGRFTISRDNSNNTLYLQMHSLRAEDTAVYYCAKALVGRYDISTGYYRPVMDSWGQGTLVTVSSGGGGSGGGGSGGGGSDIQMTQSPPSLSASVGDRVTITCRTSQGFTSALAWYQQKPGEPPKLLIYDASKLESGVPSRFSGSGSGTNFALTISSLQPEDFATYFCQQSNSYPLTFGGGTKVEIK
Kd [4]: 0.079 nM
Kd [1]: 0.08 nM

B7: 4B7 scFv (scFv)
scFv: QVQLQQSGPGLVKPSQTLSLTCSVSGGSINSDGSYWSWVRQHPGKGLEWIGYIYYSGTTYFNPSLKSRLTMSVDTSKNQFSLKMTSVTAADTAVYYCARMSGSRSYSQYYFDSWGQGTLVTVSSGGGGSGGGGSGGGGSDIQMTQSPSSLSASVGDRVTITCRASQSISSYLNWYQQKPGTAPKLLISDASTLQSGVPSRFSGSGSGTEFTLTISNLQPEDFATYYCQQFNSYVWTFGQGTKLEIK
Kd [1]: 29.4 nM

B8: 2B24 scFv (scFv)
scFv: QVQLVESGGGVVQPGRSLRLSCAASGLTFSVYGMHWVRQAPGKGLEWVAVISHTGSEEYYADSVKGRFSISRDNSNNTLFLQMNSLRPEDTAVYYCVKDGPMAAIPFYYFDFWGQGTLVTVSSGGGGSGGGGSGGGGSQSVVTQPPSVSAAPGQKVTISCSGSSSNIGNNYVSWYQQLPGTAPKLLIYDNNKRPSGIPDRFSGSKSGTSATLGITGLQTGDEADYYCGTWDSSLSAGVFGGGTKLTVL
Kd [1]: 0.79 nM

B9: 2B23 IgG (antibody, V domains shown)
VH: EVQLLESGGGLVQPGGSLRLSCAASGFTFSNYPMSWVRQAPGKGLAWVSSLTASGDNTFYADSVKGRFTISRDNSNNTLYLQMHSLRAEDTAVYYCAKALVGRYDISTGYYRPVMDSWGQGTLVTVSS
VL: DIQMTQSPPSLSASVGDRVTITCRTSQGFTSALAWYQQKPGEPPKLLIYDASKLESGVPSRFSGSGSGTNFALTISSLQPEDFATYFCQQSNSYPLTFGGGTKVEIKR
Kd [6]: 0.0382 nM

B10: 1B22 IgG (antibody, V domains shown)
VH: QVQLQESGSRLVKPSQTLSLTCGVSGGSISSSSYSWSWIRQTPGKGLEWIGYIYHSGSTYYNPSLKSRVTMSVDKSRNQFSLNMSSVTAADTAVYYCARTAFYYENTGPIRCYLDFWGQGTLVTVSS
VL: DIQMTQSPSTLSASIGDRVTISCRASQSIQSWLAWYQQRPGEAPKLLIYSASTLQTGVPSRFSGSGSGTDFTLTISSLQPEDFATYYCQQYNSYPLTFGQGTKLEIK
fold increase in affinity, IgG against parental scFv [7]: 1.5 to 25 fold
Kd [6]: 0.335 nM

B11: 1B18 scFv (scFv, V domains shown)
VH: EVQLVQSGGGLVQPGGSRRLSCAASGFYFNAYWMTWVRQAPGKGLEWVANINLDGTEIYYLDSVKGRFTVSRDNVKNSVFLQMSSLRVEDTAVYFCARLEWGGRNGWVSPWGQGTLVTVSS
VL: DVVMTQSPSSVSASVGDRVTITCRASQSISSYLNWYQQRPGKAPKLLIFAASSLQSAVPSRFSGSGSGTDFTLTISSLQPEDFATYYCQQSYSTPPTFGQGTKVEIKR
Kd [4]: 7.3 nM
Kd [1]: 7.3 nM

B12: 1B18 IgG (antibody, V domains shown)
VH: EVQLVQSGGGLVQPGGSRRLSCAASGFYFNAYWMTWVRQAPGKGLEWVANINLDGTEIYYLDSVKGRFTVSRDNVKNSVFLQMSSLRVEDTAVYFCARLEWGGRNGWVSPWGQGTLVTVSS
VL: DVVMTQSPSSVSASVGDRVTITCRASQSISSYLNWYQQRPGKAPKLLIFAASSLQSAVPSRFSGSGSGTDFTLTISSLQPEDFATYYCQQSYSTPPTFGQGTKVEIKR
Kd [6]: 0.816 nM

B13: 1B10 scFv (scFv)
scFv: QVQLVESGGGVVQPGRSLRLSCAASGFTFSHYGMHWVRQSPGKGLEWVAVIWYDGRNPYYAASVKGRFTISRDNDKNTLYLQMNSLRAEDTAVYYCVKDLTRFHDTTFGVFEMWGPGTTVTVSSGGGGSGGGGSGGGGSEIVLTQSPSSLSASVGDRITITCRASQSISSWLAWYQQKPGKAPMVLIYKASSLENGVPSRFSGSGSGTEFTLTISSLQPDDFATYYCQQYSTYSRTFGQGTKVEIK
Kd [1]: 11.2 nM

B14: 2B25 scFv (scFv)
scFv: QVQLQESGPGLVKPSQTLSLSCSVSGASITSGTFYWSWIRQHPGKDLEWIGYIYYSGTTYYNPSLKSRVTLSVDTSKNQFSLKVTSLTAADTAVYHCARGVPIYDSSGTYRGTYFDYWGQGTLVTVSSGGGGSGGGGSGGGGSQPGLTQPPSASGTPGQRVTISCSGSSSNVGSNTVNWYQQLPGTAPKLLIYRNDQRPSGVPDRFSGSKSGASASLAISGLRSEDEADYYCAAWDDSLNGLLFGGGTQLTVL
Kd [1]: 0.95 nM

B15: 4B6 scFv (scFv)
scFv: QVQLVQSGAEVKKPGESLVISCKASGDKDTFTSFWIAWVRQMPGKGLEWMGIIYAGDSDTRYSPSFQGHVNISVDRSTNTAYLQWSSLKASDTAMYYCARHDSRYKYFYFGMDVWGQGTTVTVSSGGGGSGGGGSGGGGSDVVMTQSPSSLSASVGDRITITCQAGQDISNFLNWYQQKPGKAPKLLIRDASNLETGVPSRFSGGGSGTHFTFTISSLHPEDIATYFCQQYDNLPYTFGQGTKLEIK
Kd [1]: 2.7 nM
